From the supplement of paper PMC9876800

test system: peptide library, one residue held at a place counted from the S/T acceptor; assay: relative phosphorylation of the sub-library (ratio to the mean residue at this position); human; higher = residue favoured; conditions: N fixed; at -3
Procedure, shortened: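 In 384-well plates, purified recombinant kinases (human or orthologue constructs) were incubated for 90 min under kinase-specific conditions with 50 μM biotinylated degenerate peptide sub-libraries and 50 μM ATP spiked with γ-32P-ATP. Each sub-library fixed a single residue at one position around a central Ser/Thr. Relative sub-library phosphorylation, measured by phosphorimaging and densitometry of streptavidin membrane spots, is given as a ratio to the mean residue at that position.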

MAP4K5, construct: Full length, sequence (Q9Y4K4 whole entry, looked up): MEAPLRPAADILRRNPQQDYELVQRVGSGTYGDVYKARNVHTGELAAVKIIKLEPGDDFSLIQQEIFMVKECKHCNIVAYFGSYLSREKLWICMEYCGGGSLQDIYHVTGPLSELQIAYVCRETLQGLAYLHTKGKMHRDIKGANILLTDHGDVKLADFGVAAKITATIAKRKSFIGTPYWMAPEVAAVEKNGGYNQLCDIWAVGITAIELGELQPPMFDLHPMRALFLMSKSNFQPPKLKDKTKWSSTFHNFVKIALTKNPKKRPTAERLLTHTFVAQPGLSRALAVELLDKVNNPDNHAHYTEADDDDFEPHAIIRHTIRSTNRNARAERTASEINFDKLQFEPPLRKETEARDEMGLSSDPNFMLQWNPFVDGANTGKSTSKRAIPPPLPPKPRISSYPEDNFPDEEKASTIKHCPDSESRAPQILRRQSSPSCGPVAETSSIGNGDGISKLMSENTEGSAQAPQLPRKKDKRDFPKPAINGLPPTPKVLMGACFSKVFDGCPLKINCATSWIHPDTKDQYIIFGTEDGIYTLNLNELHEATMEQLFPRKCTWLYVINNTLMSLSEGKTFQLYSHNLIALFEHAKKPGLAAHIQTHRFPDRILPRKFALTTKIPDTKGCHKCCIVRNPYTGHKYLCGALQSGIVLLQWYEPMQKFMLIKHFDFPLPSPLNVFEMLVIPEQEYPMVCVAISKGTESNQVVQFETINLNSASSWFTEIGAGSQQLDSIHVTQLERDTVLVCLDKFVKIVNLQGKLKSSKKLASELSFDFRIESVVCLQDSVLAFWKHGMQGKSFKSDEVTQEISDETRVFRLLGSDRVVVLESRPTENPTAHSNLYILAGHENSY
CDK10, construct: Full length, sequence (Q15131 whole entry, looked up): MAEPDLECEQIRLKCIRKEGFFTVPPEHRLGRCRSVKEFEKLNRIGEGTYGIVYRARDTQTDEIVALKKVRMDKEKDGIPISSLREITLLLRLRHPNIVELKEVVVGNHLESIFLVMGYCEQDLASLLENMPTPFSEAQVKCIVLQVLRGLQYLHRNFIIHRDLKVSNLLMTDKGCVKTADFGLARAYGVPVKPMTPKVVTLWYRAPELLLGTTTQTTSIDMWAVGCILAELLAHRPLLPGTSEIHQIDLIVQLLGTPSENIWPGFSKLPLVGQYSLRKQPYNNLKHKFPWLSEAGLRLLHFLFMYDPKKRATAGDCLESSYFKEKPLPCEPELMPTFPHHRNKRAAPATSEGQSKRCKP
SLK, construct: Full length, sequence (Q9H2G2 whole entry, looked up): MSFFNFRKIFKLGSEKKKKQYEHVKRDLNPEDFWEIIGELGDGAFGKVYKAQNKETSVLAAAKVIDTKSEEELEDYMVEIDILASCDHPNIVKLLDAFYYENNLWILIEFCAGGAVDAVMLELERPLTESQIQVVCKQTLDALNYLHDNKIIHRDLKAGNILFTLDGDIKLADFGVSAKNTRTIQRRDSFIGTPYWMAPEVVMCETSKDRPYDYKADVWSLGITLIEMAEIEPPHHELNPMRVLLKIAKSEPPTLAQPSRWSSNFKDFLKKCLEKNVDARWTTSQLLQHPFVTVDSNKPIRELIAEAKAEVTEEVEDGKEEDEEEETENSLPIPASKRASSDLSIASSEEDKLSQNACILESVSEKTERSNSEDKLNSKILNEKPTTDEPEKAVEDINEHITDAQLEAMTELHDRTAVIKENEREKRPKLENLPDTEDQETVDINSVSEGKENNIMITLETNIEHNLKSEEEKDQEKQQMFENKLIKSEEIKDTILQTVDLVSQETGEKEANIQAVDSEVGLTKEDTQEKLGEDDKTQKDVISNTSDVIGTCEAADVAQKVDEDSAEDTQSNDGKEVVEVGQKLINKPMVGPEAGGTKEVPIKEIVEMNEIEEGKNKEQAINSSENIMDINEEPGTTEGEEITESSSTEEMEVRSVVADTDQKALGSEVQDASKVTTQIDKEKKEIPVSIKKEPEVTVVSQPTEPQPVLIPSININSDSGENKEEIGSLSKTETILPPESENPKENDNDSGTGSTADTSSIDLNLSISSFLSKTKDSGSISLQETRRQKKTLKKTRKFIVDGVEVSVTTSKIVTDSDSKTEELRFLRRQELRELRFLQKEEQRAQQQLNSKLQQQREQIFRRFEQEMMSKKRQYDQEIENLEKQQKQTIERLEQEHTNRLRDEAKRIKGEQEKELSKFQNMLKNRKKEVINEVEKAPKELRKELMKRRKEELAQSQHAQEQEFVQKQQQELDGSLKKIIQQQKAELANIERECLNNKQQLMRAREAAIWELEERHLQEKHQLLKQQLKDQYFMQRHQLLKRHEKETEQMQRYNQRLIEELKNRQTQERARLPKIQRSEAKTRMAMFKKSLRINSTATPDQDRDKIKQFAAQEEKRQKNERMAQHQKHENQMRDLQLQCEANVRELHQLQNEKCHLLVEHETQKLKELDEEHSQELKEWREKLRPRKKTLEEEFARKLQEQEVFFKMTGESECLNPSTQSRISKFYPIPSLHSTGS
IKBKE, construct: Full length, sequence (Q14164 whole entry, looked up): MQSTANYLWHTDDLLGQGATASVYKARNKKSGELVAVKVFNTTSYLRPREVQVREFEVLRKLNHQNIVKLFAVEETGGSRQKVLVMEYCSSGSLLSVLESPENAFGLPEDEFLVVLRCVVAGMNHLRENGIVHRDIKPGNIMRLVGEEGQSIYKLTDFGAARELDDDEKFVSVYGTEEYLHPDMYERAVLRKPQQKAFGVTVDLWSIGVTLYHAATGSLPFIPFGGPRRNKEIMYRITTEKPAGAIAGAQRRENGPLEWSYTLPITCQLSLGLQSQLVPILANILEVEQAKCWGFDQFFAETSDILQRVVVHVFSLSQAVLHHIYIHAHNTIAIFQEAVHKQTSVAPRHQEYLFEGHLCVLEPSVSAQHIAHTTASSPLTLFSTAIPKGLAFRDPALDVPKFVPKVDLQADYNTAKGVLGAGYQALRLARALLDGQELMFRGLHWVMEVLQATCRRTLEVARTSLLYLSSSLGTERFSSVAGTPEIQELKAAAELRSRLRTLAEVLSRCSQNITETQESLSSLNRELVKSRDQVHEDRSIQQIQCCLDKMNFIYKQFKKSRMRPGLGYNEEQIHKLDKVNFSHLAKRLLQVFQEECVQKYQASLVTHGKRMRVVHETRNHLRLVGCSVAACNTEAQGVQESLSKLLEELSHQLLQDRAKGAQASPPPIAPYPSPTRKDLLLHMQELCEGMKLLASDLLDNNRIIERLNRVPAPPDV
NEK6, construct: Full length, sequence (Q9HC98 whole entry, looked up): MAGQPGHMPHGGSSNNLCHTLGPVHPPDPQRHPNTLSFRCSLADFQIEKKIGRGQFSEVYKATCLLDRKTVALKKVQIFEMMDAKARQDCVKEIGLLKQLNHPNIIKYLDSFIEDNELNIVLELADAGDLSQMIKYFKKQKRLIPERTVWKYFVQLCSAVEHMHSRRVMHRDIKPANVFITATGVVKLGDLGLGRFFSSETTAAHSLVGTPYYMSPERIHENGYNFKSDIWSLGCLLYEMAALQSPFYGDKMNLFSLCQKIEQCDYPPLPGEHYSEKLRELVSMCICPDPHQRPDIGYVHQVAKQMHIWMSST
SIK3, construct: aa1-307, sequence (Q9Y2K2 1-307, looked up): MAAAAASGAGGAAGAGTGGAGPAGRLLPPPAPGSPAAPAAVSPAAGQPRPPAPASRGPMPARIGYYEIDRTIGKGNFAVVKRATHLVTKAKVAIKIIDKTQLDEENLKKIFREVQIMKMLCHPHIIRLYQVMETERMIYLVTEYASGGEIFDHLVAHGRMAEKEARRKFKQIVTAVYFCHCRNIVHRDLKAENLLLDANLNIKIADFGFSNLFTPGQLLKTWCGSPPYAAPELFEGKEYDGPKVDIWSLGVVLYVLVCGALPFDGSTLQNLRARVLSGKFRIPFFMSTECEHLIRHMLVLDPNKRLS
TNIK, construct: aa1-314, sequence (Q9UKE5 1-314, looked up): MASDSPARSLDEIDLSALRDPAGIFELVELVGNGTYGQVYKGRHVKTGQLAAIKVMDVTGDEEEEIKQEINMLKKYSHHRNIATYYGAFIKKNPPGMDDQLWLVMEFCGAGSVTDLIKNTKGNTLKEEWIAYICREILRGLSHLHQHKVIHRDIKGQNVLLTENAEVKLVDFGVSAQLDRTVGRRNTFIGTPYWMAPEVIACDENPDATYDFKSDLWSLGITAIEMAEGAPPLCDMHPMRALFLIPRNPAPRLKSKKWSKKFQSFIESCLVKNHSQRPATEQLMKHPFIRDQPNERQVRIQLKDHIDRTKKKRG

Row | Substance | relative phosphorylation
1 | IKBKE, construct: Full length (from UniProt Q14164) | 1.12
2 | MAP4K5, construct: Full length (from UniProt Q9Y4K4) | 1.13
3 | NEK6, construct: Full length (from UniProt Q9HC98) | 0.869
4 | SIK3, construct: aa1-307 (from UniProt Q9Y2K2) | 0.57
5 | TNIK, construct: aa1-314 (from UniProt Q9UKE5) | 1.15
6 | SLK, construct: Full length (from UniProt Q9H2G2) | 1.11
7 | CDK10, construct: Full length (from UniProt Q15131) | 0.749

same assay, conditions: N fixed; at -4

Row | Substance | relative phosphorylation
8 | PKN2, construct: aa501-984 (from UniProt Q16513) | 0.938
9 | IKBKE, construct: Full length (from UniProt Q14164) | 1.01
10 | MAP4K5, construct: Full length (from UniProt Q9Y4K4) | 0.933
11 | NEK6, construct: Full length (from UniProt Q9HC98) | 1.29
12 | SIK3, construct: aa1-307 (from UniProt Q9Y2K2) | 0.895
13 | TNIK, construct: aa1-314 (from UniProt Q9UKE5) | 0.792
14 | SLK, construct: Full length (from UniProt Q9H2G2) | 0.85
15 | CDK10, construct: Full length (from UniProt Q15131) | 0.841

same assay, conditions: N fixed; at -5

Row | Substance | relative phosphorylation
16 | PKN2, construct: aa501-984 (from UniProt Q16513) | 0.78
17 | IKBKE, construct: Full length (from UniProt Q14164) | 1.06
18 | MAP4K5, construct: Full length (from UniProt Q9Y4K4) | 0.943
19 | NEK6, construct: Full length (from UniProt Q9HC98) | 1.16
20 | SIK3, construct: aa1-307 (from UniProt Q9Y2K2) | 0.733
21 | TNIK, construct: aa1-314 (from UniProt Q9UKE5) | 1.02
22 | SLK, construct: Full length (from UniProt Q9H2G2) | 1.21
23 | CDK10, construct: Full length (from UniProt Q15131) | 0.741

same assay, conditions: P fixed; at +1

Row | Substance | relative phosphorylation
24 | PKN2, construct: aa501-984 (from UniProt Q16513) | 0.252
25 | IKBKE, construct: Full length (from UniProt Q14164) | 0.178
26 | MAP4K5, construct: Full length (from UniProt Q9Y4K4) | 0.32
27 | NEK6, construct: Full length (from UniProt Q9HC98) | 0.367
28 | SIK3, construct: aa1-307 (from UniProt Q9Y2K2) | 0.373
29 | TNIK, construct: aa1-314 (from UniProt Q9UKE5) | 0.338
30 | SLK, construct: Full length (from UniProt Q9H2G2) | 0.399
31 | CDK10, construct: Full length (from UniProt Q15131) | 11.8

same assay, conditions: P fixed; at +2

Row | Substance | relative phosphorylation
32 | PKN2, construct: aa501-984 (from UniProt Q16513) | 0.471
33 | IKBKE, construct: Full length (from UniProt Q14164) | 0.893
34 | MAP4K5, construct: Full length (from UniProt Q9Y4K4) | 1.13
35 | NEK6, construct: Full length (from UniProt Q9HC98) | 0.985
36 | SIK3, construct: aa1-307 (from UniProt Q9Y2K2) | 1.17
37 | TNIK, construct: aa1-314 (from UniProt Q9UKE5) | 1.05
38 | SLK, construct: Full length (from UniProt Q9H2G2) | 1.22
39 | CDK10, construct: Full length (from UniProt Q15131) | 0.782

same assay, conditions: P fixed; at +3

Row | Substance | relative phosphorylation
40 | PKN2, construct: aa501-984 (from UniProt Q16513) | 0.557
41 | IKBKE, construct: Full length (from UniProt Q14164) | 1.14
42 | MAP4K5, construct: Full length (from UniProt Q9Y4K4) | 1.14
43 | NEK6, construct: Full length (from UniProt Q9HC98) | 1.12
44 | SIK3, construct: aa1-307 (from UniProt Q9Y2K2) | 0.359
45 | TNIK, construct: aa1-314 (from UniProt Q9UKE5) | 1.14
46 | SLK, construct: Full length (from UniProt Q9H2G2) | 1.89
47 | CDK10, construct: Full length (from UniProt Q15131) | 1.13

same assay, conditions: P fixed; at +4

Row | Substance | relative phosphorylation
48 | PKN2, construct: aa501-984 (from UniProt Q16513) | 1.2
49 | IKBKE, construct: Full length (from UniProt Q14164) | 1.1
50 | MAP4K5, construct: Full length (from UniProt Q9Y4K4) | 1.12
51 | NEK6, construct: Full length (from UniProt Q9HC98) | 1.4
52 | SIK3, construct: aa1-307 (from UniProt Q9Y2K2) | 0.637
53 | TNIK, construct: aa1-314 (from UniProt Q9UKE5) | 1.23
54 | SLK, construct: Full length (from UniProt Q9H2G2) | 1.47
55 | CDK10, construct: Full length (from UniProt Q15131) | 1.02

same assay, conditions: P fixed; at -1

Row | Substance | relative phosphorylation
56 | PKN2, construct: aa501-984 (from UniProt Q16513) | 1.06
57 | IKBKE, construct: Full length (from UniProt Q14164) | 1.12
58 | MAP4K5, construct: Full length (from UniProt Q9Y4K4) | 1.2
59 | NEK6, construct: Full length (from UniProt Q9HC98) | 0.326
60 | SIK3, construct: aa1-307 (from UniProt Q9Y2K2) | 1.53
61 | TNIK, construct: aa1-314 (from UniProt Q9UKE5) | 0.65
62 | SLK, construct: Full length (from UniProt Q9H2G2) | 0.756
63 | CDK10, construct: Full length (from UniProt Q15131) | 1.58

same assay, conditions: P fixed; at -2

Row | Substance | relative phosphorylation
64 | PKN2, construct: aa501-984 (from UniProt Q16513) | 0.538
65 | IKBKE, construct: Full length (from UniProt Q14164) | 1.13
66 | MAP4K5, construct: Full length (from UniProt Q9Y4K4) | 1.07
67 | NEK6, construct: Full length (from UniProt Q9HC98) | 0.521
68 | SIK3, construct: aa1-307 (from UniProt Q9Y2K2) | 0.538
69 | TNIK, construct: aa1-314 (from UniProt Q9UKE5) | 0.736
70 | SLK, construct: Full length (from UniProt Q9H2G2) | 0.613
71 | CDK10, construct: Full length (from UniProt Q15131) | 2.09

same assay, conditions: P fixed; at -3

Row | Substance | relative phosphorylation
72 | PKN2, construct: aa501-984 (from UniProt Q16513) | 0.681
73 | IKBKE, construct: Full length (from UniProt Q14164) | 1.3
74 | MAP4K5, construct: Full length (from UniProt Q9Y4K4) | 0.999
75 | NEK6, construct: Full length (from UniProt Q9HC98) | 1.78
76 | SIK3, construct: aa1-307 (from UniProt Q9Y2K2) | 0.939
77 | TNIK, construct: aa1-314 (from UniProt Q9UKE5) | 1.08
78 | SLK, construct: Full length (from UniProt Q9H2G2) | 1
79 | CDK10, construct: Full length (from UniProt Q15131) | 0.88

same assay, conditions: P fixed; at -4

Row | Substance | relative phosphorylation
80 | PKN2, construct: aa501-984 (from UniProt Q16513) | 0.831
81 | IKBKE, construct: Full length (from UniProt Q14164) | 1.06
82 | MAP4K5, construct: Full length (from UniProt Q9Y4K4) | 1.24
83 | NEK6, construct: Full length (from UniProt Q9HC98) | 1.32
84 | SIK3, construct: aa1-307 (from UniProt Q9Y2K2) | 1.16
85 | TNIK, construct: aa1-314 (from UniProt Q9UKE5) | 1.18
86 | SLK, construct: Full length (from UniProt Q9H2G2) | 1.68
